Experiment [1] addresses full-length mature cynomolgus EMR2 (residues Q24-N816) with N-terminal aspartic acid/lysine epitope tag, overexpressed on HEK293T cells (cynomolgus monkey (Macaca fascicularis)).
Experiment [2] has the same target. In words: flow cytometry on transduced HEK293T; 293 naive MFI 96.8.
The target is the same in experiment [3]. The experiment can be described thus: flow cytometry on transduced HEK293T; 293 naive MFI ND. In general terms: A flow cytometer gives signals particle by particle.

Chain of full-length mature cynomolgus EMR2 (residues Q24-N816) with N-terminal aspartic acid/lysine epitope tag, overexpressed on HEK293T cells (cynomolgus monkey (Macaca fascicularis)) (chain, as listed by the source): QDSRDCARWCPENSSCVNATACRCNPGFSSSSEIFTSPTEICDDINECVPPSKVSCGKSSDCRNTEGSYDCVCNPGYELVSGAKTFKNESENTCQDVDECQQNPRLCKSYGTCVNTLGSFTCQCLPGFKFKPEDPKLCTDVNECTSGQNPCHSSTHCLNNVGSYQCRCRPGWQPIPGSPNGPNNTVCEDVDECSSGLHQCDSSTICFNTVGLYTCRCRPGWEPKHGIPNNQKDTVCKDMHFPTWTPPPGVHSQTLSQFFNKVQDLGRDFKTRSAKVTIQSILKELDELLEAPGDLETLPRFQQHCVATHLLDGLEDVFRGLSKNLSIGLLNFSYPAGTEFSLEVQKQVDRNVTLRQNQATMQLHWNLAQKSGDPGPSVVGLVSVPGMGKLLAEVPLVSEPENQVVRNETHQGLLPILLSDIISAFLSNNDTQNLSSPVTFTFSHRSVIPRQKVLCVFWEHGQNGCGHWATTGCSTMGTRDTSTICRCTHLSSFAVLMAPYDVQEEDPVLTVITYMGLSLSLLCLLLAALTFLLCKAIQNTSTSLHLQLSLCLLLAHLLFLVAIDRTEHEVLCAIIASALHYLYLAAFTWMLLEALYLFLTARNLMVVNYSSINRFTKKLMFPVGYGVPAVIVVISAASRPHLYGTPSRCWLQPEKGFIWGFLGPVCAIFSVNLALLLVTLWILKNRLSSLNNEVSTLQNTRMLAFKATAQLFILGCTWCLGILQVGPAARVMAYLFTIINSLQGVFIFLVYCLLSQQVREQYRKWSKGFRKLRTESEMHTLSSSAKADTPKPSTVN

B1: SC93.216 (antibody, IgG1, V domains shown)
VH: EVQLVESGGGLVKPGGSLKLSCAASGFTFSSYGMSWVRQTPEKRLEWVAAIHSNGDITYYPDTVKGRFTISRDNAKNTLYLQMSSLTSEDTALYYCANLAYWGQGTLVTVSA
VL: EIQMTQSPSSMSASLGDRITITCQATQDIVKNLNWYQQKPGKSPSSLIYYATELAEGVPSRFSGSGSGSDYSLTISNLESEDFADYYCLQFYEFPLTFGAGTKLELK
For B1, the % live, FAB-saporin killing assay in experiment [1] worked out at 105%. The FC MFI in experiment [2] amounted to 220.

B2: SC93.15 (antibody, IgG1, V domains shown)
VH: EVQLQQSGPELVKPGASVKISCKGSGYTFTDYFMNWVKLSHGKSLEWIGEINPNNGGTNYNQKFKGKATLTVDKSSSIAYMELRSLTSEDSAVYYCARPGTNYWGPGTTLTVSS
VL: DIVMTQSHKFMSTSVGDRVSITCKASQNVGTSVAWYQQKPGHSPKLLIYWASTRHTGVPDRFTGSGSGTDFSLTISSVQSEDLTDYFCQQYSSYPLTFGGGTKLEIK
In experiment [3], B2 gave an FC MFI of 41.2. Besides, the % live, FAB-saporin killing assay in experiment [1] is 101%.

Source of the values: patent US20180327506A1.
